Source: the DeepSol protein solubility set

Assay: soluble on expression in E. coli; label from the status in PepcDB or PDB records

Soluble on expression in E. coli, not soluble:
MGSDKIHHHHHHMVLPGFFVPVKGWCPLPGVVIFTDVPAVVPATVSAHEAACPAGSPVLPRVSGLPPLRDGSRGRDCPMGASHVWDLPFSPPAGAALPCRRSRSHGLAPAPRVYGMLLVRAWRCSMDRDTVAGLMADALLERRFRHNDGAHPALAALRELAVNQGTDAGRRMVADDPHEVGSPPLSPIDPVELLQHDGALPSLPTVYVELRQRLADPDCSVREAAEVITRDAGLTAWLLRVVNSASYGLSGRVDTVTQAVAVVGMRQLETMVASGMLQSLMRSVPRGLVDMERLWRHSLAVGGAAREIWRLMGRPDPERLFVAGVLHDVGYLAFVMMAPQKAAQLVPRLRASHLPGHLAERELLGFDHAKLGGMLLHKWNMPVPLVMSVLRHHEPESVPSMPEPSVIHLADIVARAMGYGPDAESAVPPLSASAWEASGLTPQHLEAVANAMTAMVDDLGTAVMCTTV, MGSDKIHHHHHHMVLSGSPYERGFQHGNRFADLISQALDRRLASLSAADLSQAHKRASDVLATIDVMAPHVGTELRGIADGAGREVSGIVLRSSFELLASPTATGCSGLAVQTRDGALIAQNWDGPLGSDVEQALFIHVGTSGFEFATVAAVGALGWVGFNRAGFGFVNNDLVLKSRCDGIPSQIVRRVFLGCPDVNAAVEAAKSLPHMAGRAYLFGDASNKIASIEVSARHGVSVCRSGSFLAHTNHALNDQIRADEDAELLARQYPSSQKRLEVLKMREAGCADACEVMDILRDRTNAPDSVCKQTSLREPTQTAFSVVMQCRNRTLFLVRGMPSATEYQRISL, MGSDKIHHHHHHMVNEQRVLDTFLELVQIDSESKEEAQICAHLKETFTALGCDVFEDDASSKTEHKGNNLIITLPATKDGVDKIYFTSHMDTVFPGQGIKPIIEDGYVKTDGTTILGADDKTGLASLIELVHVLNETNQPHGKIQFVITVGEESGLVGAMVLDPSKIDADYGFALDSDGKVGDIITAAPTQAKVNAKIYGKTAHAGVAPEKGISAITIAAKAIAKMPLGRIDEETTANIGRFSGGGPSTNIVCDYVEIFAEARSLVAPKMEAQTAKMKAAFEEVAAEFGGRAEVEVKVMYPGFKFEDGDQVVEVAKAAITQLGRTPRLLHSGGGSDANVIAGFGIPTVNLAVGYEDIHTTNEKMPIEELVKTAELCVTLVDYITNK, MGSDKIHHHHHHMVSEECSSFFYLHNSDFNMFGKKKNEDYSVKTVKVGVDKLTTIALGTMVKGTITVEGDLRLDGIIEGNVSCRGKVVIGPQGRIKGNVTCTGAVLHGMLQGDIQVAEDLIMKSGCTMNGDVYTCKLEIESKARFNGTCNTTEKDTLVTSQVVKPETVDTEK, MGSDKIHHHHHHMVTSPSLKGLQAFEAAARAGSFAAAAEELSVSAAAVSQLIRTVEEQMGRKLFHRVNRKVVLTEAGVEILPRLTMAFQEIGSVSRELDGDAFRPRLVVSVPPSMAMGWLSQRLAGFVASHGAADISLRGDDDPVPFDRELIDIRLSYGPHYREHPTEDIARDAVYPVCAPGLASAIKADGGPLAGLPLIHTDWGPTGASFPSWRNWFEAEGVQPGRAAQRGLSANSSRAALDLAISGLGVTLAQGVYCAEALEDGRLVRPAARVIALRQPYCLTIPERSARRDVVAAFRDWLIEECRRAVGSPALR, MGSDKIHHHHHHMWGFPRAGSSPALGTSRKRRSFLRFFLEENGVKEIELFGTKVLSGTRREFLNAIEERIEKNIKTFVVTMNASILLKAIEDAGYRAIVNSADLVVPDGFGVVWAMKTLTGETTERLPGVEIMKHLCERSKEKGWKVYLLGTKREIVEKAKQVLERSGVRVVGCHDGFFSEKESPKIVEDVNRSSTDLLFVGMGVPRQEEWIYRNFPQLNVKLAMGVGGSIDVVSGKKKRAPEWVQRMNLEWLYRFFQSPLSKRKVPVQVSKFVFFVLREKLKNRN, MGSDKIHHHHHHMWIVLDTNIYFNQWLLEGANFRVFRNFCNNTGATLLLPEVVKQEVQNKYDGELAQARIELDKLAAKFSKLGVECPSNLVVSDDYDFDQLVREQYRNVILVPYSGVAHEQLVEKALAPKLPFREKEKGYRDALMWLSILDYVKESGFKESIHFVNANSKDFYSNKSGGLTLHEDLKDDLRARNMETNIIPYTSLNEFVEGHVLQELHGVDWMDFYSEFNGELDSDVCVEAIAWLDECSLSVLREKLVEANYPGLIMDGVFAASFETWDGVEDSDILAMRKIDEDRYFIDYAFDIRGLEVKLLSSPTSPASGYFGAYIDVEIDNDLATTSFFTRADFKASVVFNITAEVVEDVDVTSFKFRPR, MGSDKIHHHHHHMWQAISRLLSEQLGEGEIELRNELPGGEVHAAWHLRYAGHDFFVKCDERELLPGFTAEADQLELLSRSKTVTVPKVWAVGADRDYSFLVMDYLPPRPLDAHSAFILGQQIARLHQWSDQPQFGLDFDNALSTTPQPNTWQRRWSTFFAEQRIGWQLELAAEKGIAFGNIDAIVEHIQQRLASHQPQPSLLHGDLWSGNCALGPDGPYIFDPACYWGDRECDLAMLPLHTEQPPQIYDGYQSVSPLPADFLERQPVYQLYTLLNRARLFGGQHLVIAQQSLDRLLAA, MGSDKIHHHHHHMWVCGLGVIRFGPAGKPVEFKGDIVKVPEFLRSIGLDALEYEAVRGVRISEAKARRLGEAARENGVILSMHAPYYVNLSSPDDSVVERSIKRLYDSMIASEWMGSYAVVVHPGYYKGLKSREEAVKRVIEALNRLIESLPSWVKTPWIAPETMGKQSQVGSLEETVEICLNTPRCRPCVDWAHLYARAEGKFVTSVDQVVKAIEYIESNLGREAVDPLHTHFSKIEYGKGGERMHHTLREEGYGPDWRIVCRAYKETGINAVVISESPILEKDALLMKSICKGEA, MGSDKIHHHHHHMYDLQELEAFVSVVRTGSLTASTRDLGLPKSTLSRRIRQLEENVGQPLLLRQSRKIVPNDAGRVFYRYCNDILELVVQGREALDELKAEVTGKLELRCHESFVRGWFSGVVESFMADHDDLRVAIHTQRNLPEAVEDGVCIWLGETGETALRQEVLGVLKQGIFGSPAYFRQHGKPAAPGELAHHPWVDLLGMADTGVILHHSRQGNFPLSLPDRRFTVDQFNVQGDAIAAGRGLGLMPVWLVERRLTAHPGSFQSCLPEWYGPDLPVTLLYPHGVLPRRVRAFIAHLRSCIPEEWTGGGGTATQAVPKSGTHHSNT, MGSDKIHHHHHHMYHDVSYLLSRLINGPLSLRQIYFASSNGPVPDLAYQVDFPRLEIVLEGEFVDTGAGATLVPGDVLYVPAGGWNFPQWQAPATTFSVLFGKQQLGFSVVQWDGKQYQNLAKQHVARRGPRIGSFLLQTLNEMQMQPQEQQTARLIVASLLSHCRDLLGSQIQTASRSQALFEAIRDYIDERYASALTRESVAQAFYISPNYLSHLFQKTGAIGFNEYLNHTRLEHAKTLLKGYDLKVKEVAHACGFVDSNYFCRLFRKNTERSPSEYRRQYHSQLTEKPTTPE, MGSDKIHHHHHHMYIGCNWSKALKFLLEKDEVKIDYIKAGAYGDFENEFSTMRSMKPILIHGLGKFERTGMKDINLVDFDRANSIIKRCSSPHFGIHLEIKNSDMYEGMRDENIYEYMCKQIQTFKKNIEVPLLLENVPDSPIEHTVFDCYPYFQPKKLTKLFLDNNVDFLLDLTHAKITSKYHKIDVHEYLNGLPLERVREIHVNGSGYDEEGFPMDTHSSMEKEDYDLLRWVLTYSKPYVVTLEYAGTKKEKEADIIASLKTQLREIQNIIISR, MGSDKIHHHHHHMYPAKHYQTNEENITHYHEIIESNPLATLLFSHESEIDVSHIPCHFSLKTSNTNTQQLERSTLTAHVSNHHPLAKVLQRSSTVALQLVFHGEDAYISPRDVSKQHSHAQSVPTWNYAKVHVSGIAHEVKDSDDKYQYMAASTAYFEQRRSTNNIDKPWSIEEAPAIAIKKMLNAITIFSINITHLEGRFKLSQNKSKAVQKEIAEQLTTRGVEELGQLMLAL, MGSDKIHHHHHHMYPKNTWYVACTPDEIATKPLGRQICGEKIVFYRARENQVAAVEDFCPHRGAPLSLGYVEDGNLVCGYHGLVMGCDGKTVSMPGQRVRGFPCNKTFAAVERYGFIWVWPGDQAQADPALIPHLEWAVSDEWAYGGGLFHIGCDYRLMIDNLMDLTHETYVHASSIGQKEIDEAPPVTTVTGDEVVTARHMENIMAPPFWRMALRGNGLADDVPVDRWQICRFTPPSHVLIEVGVAHAGKGGYHAEAQHKASSIVVDFITPESDTSIWYFWGMARNFAAHDQTLTDNIREGQGKIFSEDLEMLERQQQNLLAHPERNLLKLNIDAGGVQSRKVLERIIAQERAPQPQLIATSANPA, MGSDKIHHHHHHNGNGDKSLENWIWDAACSIRGAQEAAKYKDFILPLIFTKRLCDVFDDELNRIAEKVGSRAKAFKLVAMDHNLVRFYLPLQPQNPDDPVWSVIRKLSDKIGEKLTDYLREIAKANPLLNGIINRVDFNATTHGQRDLDDDRLSNLIEKISEKRLGLKDVEPDIIGRSYEYLIRKFAEGSGQSAGEFYTPKEVGLIMAKIMQPEPGMTIYDPCCGSAGLLIKCQLVLQESQGATEKFAPLQLYGQEYTPNTWAMANMNMIIHDMEGKIEIGDTFRHPKFMQAGKLAQFERVVANPMWNQKWFTEKDYDGDELGRFPKGAGYPGSSADWGWVQHILASLDKTGKAAIVLDTGAASRGSGNANKNKEKEVRKWFVEQDLIEGVIYLPQNLFYNTSAPGILLFLNRAKPKERQGKLFFINASLVFAKGDPKNYIPDEEIERIANTFLTWREEEKFSLIVYKDKIAHNDYNISPSRYIHITEEEDFRPIAEILEELEVLEKEAAETNK, MGSDKIHHHHHHQPTGTMTTDSKLTSKESALALTNSAYLKNTVFNKMTPGWGCNTILLLEYMTGKATSENSQSNYKDFQDLLVSDRSLYIEDWWQDCYAGIANCNLALQKLGEFENLDASLVNGYMAEVKFMRALYYFYLVRIFGDVPKITTVQSELGELQVSRAPVKEIYDEIIIPDLLEAEQSDLAFSDHTGRVSMGAVKALLADVYLTYAGYPLQGGKSYYAESAKRSLEVIKSNEYTLFTDYESLRLPSQNNKGEFIYQVQFSLNKRHNESVRIFLPSRSGISAYDLEYGSLIPTKEFVESFEKGDKRTEEKQYFFTNYKGHPSKFSPGAAELEFMDLNGYYIYKFFDQVAVDNTAKSDLNWSVYRYTDVLLMYAEAQVNADGTPNQQSIDIVNQIRGRAGLAPFKQTNASAFLEEVWDQRYFDLCYENKMWFDMLRTRKIRDDKSGEYVDFIGYKTNWGKVYTETQLLFPIPLSERQANPNLTQNQGY, MGSDKIHHHHHHSDDINQKVAEQLAQKAQSSSLGYDIVESLTVEVGPRLAGSEQDKVAVDWAIAKLQSLGFDRVYKEPVTVPVWRRGIAKASILSPFPQPLVVTALGGSIATPAQGLSATIVRFDTLQDLQNAEAGSLNDKIAFIDAKTERHRDGKGYGQTASGRSRGAVAAAEKGAVGIIIRSIGTDHDRMAHTGMMRYEEGVTAIPAAAISNPDADLINAMLKRDKEVVISLELGSERRGETTSYNVIAEVKGSTKADEIVLIGAHLDSWDEGTGAIDDGAGVAIVTAAAKHILDLPQKPERTIRVVLYAAEELGLLGGKTYAKEHEAELEKHYIAAESDFGAGPIYQIDWRVADTAHSPVINAMKVAEPLGVAAGNNKASGGPDVSMLPALGVPVASLRQDGSDYFDYHHTPNDTLDKINPEALAQNVAVYAQFAWVMANSKVELRPLPPKE, MGSDKIHHHHHHSDNAGRTDKQTATVHDSQKDTSSDSKSDNDKKDTKYKSADEITMDDLMSHDETPAEDFELIDNSDEIVIQKYIGKDPIMVIPDEINGKKVVSLGTYALANDKNIVAIKIGNNIKDLGEGVFGNCENLRYVVLGDSVKTIGCNPFLNTNIQEVTLNDGLQKIGEDDINNTVDAPSKNIGMDLKIPESVTEMHLRDFHLIVKAGSYAEQYAKEYAESNNLTYTVE
